Results published in patent publication US20220380475A1 (SORRISO PHARMACEUTICALS, published 2022).
Positions count from the first letter of the chain named. Names may count otherwise. Where two headings read alike, the source gives them in different places.

Key:
[1] = target: cynomolgus monkey soluble IL-6R (from cynomolgus monkey serum) (cynomolgus monkey); assay: ratio of gp130 ELISA IC50s on human and cynomolgus sIL-6R
[2] = target: cynomolgus monkey soluble IL-6R (from cynomolgus monkey serum) (cynomolgus monkey); assay: anti-cynomolgus IL-6R gp130 ELISA (competition): 10x diluted cynomolgus serum, 50 ng/mL human IL-6, coated human gp130
[3] = target: T1, recombinant soluble human IL-6R (human, UniProt P08887 20-365); assay: gp130 ELISA (competition), parallel human arm: 10 ng/mL human IL-6R, 50 ng/mL human IL-6
T1 sequence: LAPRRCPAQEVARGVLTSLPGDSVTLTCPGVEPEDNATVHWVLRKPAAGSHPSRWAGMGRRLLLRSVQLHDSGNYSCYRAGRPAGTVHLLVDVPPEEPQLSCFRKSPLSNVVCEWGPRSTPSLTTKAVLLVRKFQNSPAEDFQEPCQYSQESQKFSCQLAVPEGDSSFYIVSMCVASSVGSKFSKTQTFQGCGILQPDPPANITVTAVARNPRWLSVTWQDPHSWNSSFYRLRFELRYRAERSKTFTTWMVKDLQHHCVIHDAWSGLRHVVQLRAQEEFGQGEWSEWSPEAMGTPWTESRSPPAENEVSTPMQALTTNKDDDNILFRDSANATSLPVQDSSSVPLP
Method: (§1) The standard anti-cynomolgus monkey IL-6R gp130 ELISA assay detailed under ‘Potency, neutralisation and inhibition’ above was performed to assay the ICVDs in parallel for their ability to neutralise sIL6R in cynomolgous monkey serum and recombinant purified human sIL6R. Briefly, Maxisorp 96-well plates were coated overnight with 50 μl/well 1 μg/ml gp130 then blocked. ICVDs were serially diluted and mixed 1:1 with 200 ng/ml recombinant human IL-6, then 1:1 with either 20 ng/ml recombinant human sIL-6R or a 5-fold dilution of cynomolgus monkey serum and incubated for 1 hour to allow binding before adding to the gp130-coated plates. Bound cynomolgus monkey IL-6R was detected with 50 μl/well either 0.25 μg/ml (for human IL-6R) or 0.5 μg/ml (for monkey serum) BAF227 and then 50 μl/well 1/1000 Extravidin-HRP and the level of neutralisation by the ICVD of IL-6R binding to IL-6/gp130 was determined

[4] = target: T2, membrane-bound human IL-6R on TF-1 cells (human, UniProt P08887 20-468); assay: cell-based or functional assay
T2 sequence: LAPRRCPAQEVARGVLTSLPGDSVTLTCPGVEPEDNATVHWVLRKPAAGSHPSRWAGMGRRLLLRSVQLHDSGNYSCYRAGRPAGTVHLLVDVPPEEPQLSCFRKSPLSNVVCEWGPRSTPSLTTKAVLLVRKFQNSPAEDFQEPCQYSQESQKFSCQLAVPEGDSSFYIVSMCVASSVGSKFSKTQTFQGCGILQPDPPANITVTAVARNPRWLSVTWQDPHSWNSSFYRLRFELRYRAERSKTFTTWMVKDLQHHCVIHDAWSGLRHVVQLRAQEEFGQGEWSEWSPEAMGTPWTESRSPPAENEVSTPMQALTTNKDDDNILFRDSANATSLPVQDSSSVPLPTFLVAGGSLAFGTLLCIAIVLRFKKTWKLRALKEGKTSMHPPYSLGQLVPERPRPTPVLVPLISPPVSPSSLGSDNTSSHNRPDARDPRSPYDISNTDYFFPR

[5] = target: recombinant soluble human IL-6R (human) (UniProt P08887); assay: Biacore (SPR): binder fixed to the sensor, soluble human IL-6R flowed over
[6] = target: recombinant soluble human IL-6R (human) (UniProt P08887); assay: standard gp130 ELISA (competition), Experiment 2; 10 ng/mL IL-6R, 50 ng/mL IL-6
[7] = target: recombinant soluble human IL-6R (human) (UniProt P08887); assay: gp130 ELISA (competition): inhibition of human sIL-6R/IL-6 complex binding to coated gp130; 20 ng/mL IL6R, 100 ng/mL IL6
[8] = target: membrane-bound human IL-6R on TF-1 cells (human) (UniProt P08887); assay: cell-based or functional assay
[9] = target: recombinant soluble human IL-6R (human) (UniProt P08887); assay: cell-based or functional assay
[10] = target: membrane-bound human IL-6R on TF-1 cells (human) (UniProt P08887); assay: cell-based or functional assay; remark: listed apart in the source
[11] = target: T1, recombinant soluble human IL-6R; assay: standard gp130 ELISA (competition); 10 ng/mL IL-6R, 50 ng/mL IL-6; column 'Potency'
Method: Mutant 5G9 sequences were produced and tested for their potency in the standard gp130 ELISA. The standard gp130 ELISA has a final assay concentration of 10 ng/mL IL-6R and 50 ng/mL IL-6.

[12] = target: T1, recombinant soluble human IL-6R; assay: standard gp130 ELISA (competition); reference 5G9
[13] = target: T2, membrane-bound human IL-6R on TF-1 cells; assay: cell-based or functional assay; remark: listed apart in the source
[14] = target: T1, recombinant soluble human IL-6R; assay: cell-based or functional assay
[15] = target: T1, recombinant soluble human IL-6R; assay: standard gp130 ELISA (competition), Experiment 2; 10 ng/mL IL-6R, 50 ng/mL IL-6
Method: (§2) The inhibitory potency and efficacy (maximal inhibition) of the E. coli-produced 5G9 derivatives were confirmed in vitro in the gp130 ELISA, TF-1 cell and M1 cell functional assays measuring responses mediated via human IL-6R. The gp130 assays follow the standard protocol with a final assay concentration of 10 ng/mL IL-6R and 50 ng/mL IL-6.

[16] = target: T1, recombinant soluble human IL-6R; assay: Biacore (SPR): ICVD fixed to the sensor, soluble human IL-6R flowed over
Text: The binding kinetics of the trans-selective ID-123V (E. coli produced version of ID-142V) and the cis/trans potent ID-112V (E. coli produced version of ID-144V, but for ID-112V lacking N82Y relative to ID-144V) were compared against tocilizumab in a Biacore study. The ICVDs were fixed to the Biacore sensor plate and soluble human IL-6R was flowed over the plate to detect binding.

[17] = target: T2, membrane-bound human IL-6R on TF-1 cells; assay: cell-based or functional assay; remark: listed apart in the source
[18] = target: T1, recombinant soluble human IL-6R; assay: standard gp130 ELISA (competition), Experiment 1; 10 ng/mL IL-6R, 50 ng/mL IL-6
Method: as §2

[19] = target: T2, membrane-bound human IL-6R on TF-1 cells; assay: cell-based or functional assay; remark: listed apart in the source
[20] = target: T3, cynomolgus monkey soluble IL-6R (from cynomolgus monkey serum) (cynomolgus monkey, UniProt P08887 20-365 (human entry)); assay: ratio of gp130 ELISA IC50s on human and cynomolgus sIL-6R
T3 construct: Natural soluble IL-6R present in diluted normal cynomolgus monkey serum; also called cyno IL6R; cynomolgous sIL-6R
T3 chain: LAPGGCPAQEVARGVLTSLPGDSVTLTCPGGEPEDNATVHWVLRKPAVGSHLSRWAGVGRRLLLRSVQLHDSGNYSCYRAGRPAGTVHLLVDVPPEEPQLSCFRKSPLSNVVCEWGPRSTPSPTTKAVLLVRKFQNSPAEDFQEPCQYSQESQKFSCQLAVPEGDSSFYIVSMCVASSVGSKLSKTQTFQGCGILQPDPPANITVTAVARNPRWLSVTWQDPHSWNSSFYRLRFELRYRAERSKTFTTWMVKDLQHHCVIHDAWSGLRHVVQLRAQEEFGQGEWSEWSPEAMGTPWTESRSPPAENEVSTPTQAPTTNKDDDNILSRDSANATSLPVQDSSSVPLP
Method: as §1

[21] = target: T3, cynomolgus monkey soluble IL-6R (from …); assay: anti-cynomolgus IL-6R gp130 ELISA (competition): 10x diluted cynomolgus serum, 50 ng/mL human IL-6, coated human gp130
Method: as §1

[22] = target: T1, recombinant soluble human IL-6R; assay: gp130 ELISA (competition): inhibition of human sIL-6R/IL-6 complex binding to coated gp130; 20 ng/mL IL6R, 100 ng/mL IL6
Method: (§3) Briefly, Maxisorp 96-well plates were coated overnight with 50 μl/well 0.5 μg/ml gp130 then blocked. ICVDs were serially diluted and mixed 1:1 with 100 ng/ml recombinant human IL-6 then 1:1 with 40 ng/ml recombinant human sIL-6R, and incubated for 1 hour to allow binding before adding to the gp130-coated plates. Bound IL-6R was detected with 50 μl/well 0.250 μg/ml BAF227 and then 50 μl/well 1/1000 diluted Extravidin-HRP and the level of neutralisation by the ICVD of IL-6R binding to IL-6/gp130 was determined.
Dose response curves were obtained (dose response curves of particular ICVDs illustrated in FIG. 1). […] This was confirmed with curve-fitting software (Graphpad Prism), which fitted 4 parameter curves to the data and calculated the IC50s (Table 4.1, below).

[23] = target: T1, recombinant soluble human IL-6R; assay: standard gp130 ELISA (competition); column 'Potency'
[24] = target: T1, recombinant soluble human IL-6R; assay: gp130 ELISA (competition), second assay, 10 min pre-incubation; 20 ng/mL IL6R, 100 ng/mL IL6
Method: as §3
A separate assay was performed on 21E6 and 7F6 using the same protocol as above with the exception that the ICVD/IL-6R/IL-6 where only incubated with shaking for 10 min before being added to the assay plates.

[25] = target: T2, membrane-bound human IL-6R on TF-1 cells; assay: cell-based or functional assay; remark: listed apart in the source

tocilizumab Fab
Ratio of human IC50 to cynomolgus IC50 [1]: 0.6 | IC50 [2]: 1.13 nM | IC50 [3]: 0.704 nM | IC50 of inhibition of IL-6-induced TF-1 cell proliferation [4]: 15.9 nM

B1: tocilizumab (antibody, part only; not given: constant regions, V domains shown, not shown: another chain or arm of the molecule)
VH: QVQLQESGPGLVRPSQTLSLTCTVSGYSITSDHAWSWVRQPPGRGLEWIGYISYSGITTYNPSLKSRVTMLRDTSKNQFSLRLSSVTAADTAVYYCARSLARTTAMDYWGQGSLVTVSS
VL: DIQMTQSPSSLSASVGDRVTITCRASQDISSYLNWYQQKPGKAPKLLIYYTSRLHSGVPSRFSGSGSGTDFTFTISSLQPEDIATYYCQQGNTLPYTFGQGTKVEIK
Kd [5]: 0.39 nM | EC50 [6]: 1.83 nM | IC50 [7]: 0.97 nM | TF-1 cell assay EC50 (5 ng/ml IL-6) [8]: 0.69 nM | Potency in the TF-1 assay ([8]; scale: not given): 0.69 | M1 cellular assay EC50 (20 ng/ml IL-6R, 100 ng/ml IL-6) [9]: 5.36 nM | TF-1 cell assay EC50 (5 ng/ml IL-6) [10]: 1.12 nM

B2: ID-57V (VHH)
VHH: EVQLVESGGGLVQAGGSTRLTCKASGSIININSINVMAWYRQAPGKQRELVAIIGKGGGTNYADFVKGRFTISRDAAKNTVNLQMNSLKPEDTAVYYCYADYEDRDSPFNASWGQGTQVTVSS
notes: Mutant of 5G9; also called 5G9 + F29I; not shown: C-terminal Flag- and His-tags of E. coli constructs
IC50 [11]: 0.31 nM | fold increase of IC50 against 5G9 [12]: ~3 fold

B3: ID-123V (VHH)
VHH: B2 VHH with I29S, Q47G, N82Y, K89R, R105H, F109H
notes: E. coli-produced trans-selective 5G9 derivative; E. coli version of ID-142V (lacks E1D); also called 5G9 + F29S, Q47G, N82Y, K89R, R105H, F109H; not shown: C-terminal FLAG-6xHis
TF-1 cell assay EC50 (5 ng/ml IL-6) [13]: 4.5 nM | M1 cellular assay EC50 (20 ng/ml IL-6R, 100 ng/ml IL-6) [14]: 4.2 nM | EC50 [15]: 0.498 nM | Kd [16]: 1.1 nM

B4: ID-112V (VHH)
VHH: B2 VHH with I29S, Q47G, K89R, R105H
notes: E. coli-produced cis/trans potent 5G9 derivative; also called 5G9 + F29S, Q47G, K89R, R105H; not shown: C-terminal FLAG-6xHis
TF-1 cell assay EC50 (5 ng/ml IL-6) [17]: 0.18 nM | EC50 [18]: 0.15 nM | M1 cellular assay EC50 (20 ng/ml IL-6R, 100 ng/ml IL-6) [14]: 0.55 nM | Kd [16]: 0.04 nM

B5: ID-58V (VHH)
VHH: B2 VHH with I29F, F65V
notes: Mutant of 5G9; also called 5G9 + F65V; not shown: C-terminal Flag- and His-tags of E. coli constructs
IC50 [11]: 0.36 nM | fold increase of IC50 against 5G9 [12]: ~3 fold

B6: 20A11 (prior art comparative example) (VHH)
VHH: EVQLVESGGGLVQPGGSLRLSCAASGSVFKINVMAWYRQAPGKGRELVAGIISGGSTSYADSVKGRFTISRDNAKNTLYLQMNSLRPEDTAVYYCAFITTESDYDLGRRYWGQGTLVTVSS
notes: Prior art anti-IL-6R polypeptide disclosed in WO 2010/115998; also called PMP20A11
IC50 of inhibition of IL-6-induced TF-1 cell proliferation [19]: 1.1 nM | TF-1 cell assay EC50 (5 ng/ml IL-6) [13]: 0.56 nM | Ratio Cyno IC50/human IC50 (title: human IC50 divided by cynomolgous IC50) [20]: 2.3 | IC50 [3]: 0.24 nM | EC50 [15]: 0.22 nM | IC50 [21]: 0.106 nM

B7: 7F6 (VHH)
VHH: EVQLVESGGGLVQAGGSTRLTCLASGSISSINVIGWYRQAPGKQRELVAMIGRGEGANYGDFAKGRFTISRDNSKNTVYLQMNSLKPEDTAVYYCYADYEDRDSPFNGSWGQGTQVTVSS
notes: also called VIL-7F6; 'Wild type' 7F6; not shown: C-terminal Flag and 6xHis tags from vector pMEK222
IC50 of inhibition of IL-6-induced TF-1 cell proliferation [19]: 0.5 nM | IC50 [22]: 0.11 nM | Ratio Cyno IC50/human IC50 (title: human IC50 divided by cynomolgous IC50) [20]: 1.2 | IC50 [3]: 0.424 nM | IC50 [23]: 0.15 nM | IC50 [24]: 0.16 nM | IC50 in TF1 assay (separate assay, raised background) [25]: 3 nM | IC50 [21]: 0.342 nM
